Measurements: article PMC2666446 (Journal of molecular biology, 2008)
Like-named read-outs stand apart in the source and are kept apart here.

T1: MutS (Escherichia coli, UniProt P23909 1-853)
T1 sequence: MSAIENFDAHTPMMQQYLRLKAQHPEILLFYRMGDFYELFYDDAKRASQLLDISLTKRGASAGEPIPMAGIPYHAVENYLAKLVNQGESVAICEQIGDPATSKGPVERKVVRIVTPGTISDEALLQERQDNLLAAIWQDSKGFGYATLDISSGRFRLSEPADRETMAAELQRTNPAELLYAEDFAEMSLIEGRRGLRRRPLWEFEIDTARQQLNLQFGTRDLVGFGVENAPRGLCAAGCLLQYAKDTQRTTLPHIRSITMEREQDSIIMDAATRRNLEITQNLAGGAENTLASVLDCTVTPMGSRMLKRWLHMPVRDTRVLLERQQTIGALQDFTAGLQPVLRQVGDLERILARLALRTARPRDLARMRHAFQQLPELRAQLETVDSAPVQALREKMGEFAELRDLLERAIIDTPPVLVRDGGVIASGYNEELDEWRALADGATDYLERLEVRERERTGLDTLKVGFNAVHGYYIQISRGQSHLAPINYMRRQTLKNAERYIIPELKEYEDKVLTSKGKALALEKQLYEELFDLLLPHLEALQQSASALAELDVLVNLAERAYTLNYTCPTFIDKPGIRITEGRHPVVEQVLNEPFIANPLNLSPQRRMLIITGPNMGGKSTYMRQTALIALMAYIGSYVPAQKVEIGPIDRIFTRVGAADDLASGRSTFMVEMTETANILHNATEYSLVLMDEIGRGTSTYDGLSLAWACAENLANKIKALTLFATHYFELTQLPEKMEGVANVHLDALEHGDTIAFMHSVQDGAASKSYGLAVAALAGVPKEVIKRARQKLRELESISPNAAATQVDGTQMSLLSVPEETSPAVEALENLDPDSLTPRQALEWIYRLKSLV


What was measured:
MutS [1] = target: T1, MutS; experiment: FRET equilibrium titration
MutS [2] = target: T1, MutS; experiment: FRET equilibrium titration; remark: listed apart in the source
MutS [3] = target: T1, MutS; experiment: competition
MutS [4] = target: T1, MutS; experiment: competition; remark: listed apart in the source
[5] = target: the molecule itself; experiment: other fluorescence titration
[6] = target: the molecule itself; experiment: other fluorescence titration; remark: listed apart in the source
MutS [7] = target: T1, MutS; experiment: stopped-flow FRET kinetics
MutS [8] = target: T1, MutS; experiment: stopped-flow FRET kinetics; remark: listed apart in the source
MutS [9] = target: T1, MutS; experiment: competition; remark: listed apart in the source

Binder | Kd (MutS [1]) | Kd (MutS [2]) | other results
30-2ΔT (dsDNA) DNA 1: AACTGCCAGGCACCAGTGTCAGCGTCGTAT DNA 2: ATACGACGCTGACACTGGTGCCTTTGGCAGTT | 0.089 µM | 0.074 µM | –
90-bp homoduplex (dsDNA) DNA 1: CGCAGTGCTAAGACGTACCATGCAACCGTAGATTCTAACTGCCAGGCACCAGTGTCAGCGTCGTATAGTCGTGTATAGATCGTTATCTGC DNA 2: GCAGATAACGATCTATACACGACTATACGACGCTGACACTGGTGCCTGGCAGTTAGAATCTACGGTTGCATGGTACGTCTTAGCACTGCG | – | – | IC50 (MutS [3]): ~3.6 µM; Kd (MutS [4]): ~3.7 µM
30-TG (dsDNA) DNA 1: AACTGCCATGCACCAGTGTCAGCGTCGTAT DNA 2: ATACGACGCTGACACTGGTGCGTGGCAGTT | 0.08 µM | 0.07 µM | –
E. coli His6-MutS (natural protein, UniProt P23909 1-853, looked up) MSAIENFDAHTPMMQQYLRLKAQHPEILLFYRMGDFYELFYDDAKRASQLLDISLTKRGASAGEPIPMAGIPYHAVENYLAKLVNQGESVAICEQIGDPATSKGPVERKVVRIVTPGTISDEALLQERQDNLLAAIWQDSKGFGYATLDISSGRFRLSEPADRETMAAELQRTNPAELLYAEDFAEMSLIEGRRGLRRRPLWEFEIDTARQQLNLQFGTRDLVGFGVENAPRGLCAAGCLLQYAKDTQRTTLPHIRSITMEREQDSIIMDAATRRNLEITQNLAGGAENTLASVLDCTVTPMGSRMLKRWLHMPVRDTRVLLERQQTIGALQDFTAGLQPVLRQVGDLERILARLALRTARPRDLARMRHAFQQLPELRAQLETVDSAPVQALREKMGEFAELRDLLERAIIDTPPVLVRDGGVIASGYNEELDEWRALADGATDYLERLEVRERERTGLDTLKVGFNAVHGYYIQISRGQSHLAPINYMRRQTLKNAERYIIPELKEYEDKVLTSKGKALALEKQLYEELFDLLLPHLEALQQSASALAELDVLVNLAERAYTLNYTCPTFIDKPGIRITEGRHPVVEQVLNEPFIANPLNLSPQRRMLIITGPNMGGKSTYMRQTALIALMAYIGSYVPAQKVEIGPIDRIFTRVGAADDLASGRSTFMVEMTETANILHNATEYSLVLMDEIGRGTSTYDGLSLAWACAENLANKIKALTLFATHYFELTQLPEKMEGVANVHLDALEHGDTIAFMHSVQDGAASKSYGLAVAALAGVPKEVIKRARQKLRELESISPNAAATQVDGTQMSLLSVPEETSPAVEALENLDPDSLTPRQALEWIYRLKSLV | – | – | stoichiometry N [5]: 3.7 MutS monomers per heteroduplex; stoichiometry N [6]: 3.58 MutS monomers per heteroduplex
E. coli His6-mutS-A842E (natural protein, UniProt P23909 1-853, looked up) MSAIENFDAHTPMMQQYLRLKAQHPEILLFYRMGDFYELFYDDAKRASQLLDISLTKRGASAGEPIPMAGIPYHAVENYLAKLVNQGESVAICEQIGDPATSKGPVERKVVRIVTPGTISDEALLQERQDNLLAAIWQDSKGFGYATLDISSGRFRLSEPADRETMAAELQRTNPAELLYAEDFAEMSLIEGRRGLRRRPLWEFEIDTARQQLNLQFGTRDLVGFGVENAPRGLCAAGCLLQYAKDTQRTTLPHIRSITMEREQDSIIMDAATRRNLEITQNLAGGAENTLASVLDCTVTPMGSRMLKRWLHMPVRDTRVLLERQQTIGALQDFTAGLQPVLRQVGDLERILARLALRTARPRDLARMRHAFQQLPELRAQLETVDSAPVQALREKMGEFAELRDLLERAIIDTPPVLVRDGGVIASGYNEELDEWRALADGATDYLERLEVRERERTGLDTLKVGFNAVHGYYIQISRGQSHLAPINYMRRQTLKNAERYIIPELKEYEDKVLTSKGKALALEKQLYEELFDLLLPHLEALQQSASALAELDVLVNLAERAYTLNYTCPTFIDKPGIRITEGRHPVVEQVLNEPFIANPLNLSPQRRMLIITGPNMGGKSTYMRQTALIALMAYIGSYVPAQKVEIGPIDRIFTRVGAADDLASGRSTFMVEMTETANILHNATEYSLVLMDEIGRGTSTYDGLSLAWACAENLANKIKALTLFATHYFELTQLPEKMEGVANVHLDALEHGDTIAFMHSVQDGAASKSYGLAVAALAGVPKEVIKRARQKLRELESISPNAAATQVDGTQMSLLSVPEETSPAVEALENLDPDSLTPRQELEWIYRLKSLV | – | – | stoichiometry N [5]: 2.21 MutS monomers per heteroduplex; stoichiometry N [6]: 2.27 MutS monomers per heteroduplex
30-AC (dsDNA) DNA 1: AACTGCCAAGCACCAGTGTCAGCGTCGTAT DNA 2: ATACGACGCTGACACTGGTGCCTGGCAGTT | 0.154 µM | 0.097 µM | –
30-AG (dsDNA) DNA 1: AACTGCCAAGCACCAGTGTCAGCGTCGTAT DNA 2: ATACGACGCTGACACTGGTGCGTGGCAGTT | 0.319 µM | 0.251 µM | –
AACTGCCAGGCACCAGTGTCAGCGTCGTAT (ssDNA) [30-ssDNA] | – | – | IC50 (MutS [3]): ~6.2 µM; Kd (MutS [4]): 6.5 µM
30-AA (dsDNA) DNA 1: AACTGCCAAGCACCAGTGTCAGCGTCGTAT DNA 2: ATACGACGCTGACACTGGTGCATGGCAGTT | 0.214 µM | 0.108 µM | Kd (MutS [7]): 0.063 µM; Kd (MutS [8]): 0.153 µM
30-GC (30-bp homoduplex) (dsDNA) DNA 1: AACTGCCAGGCACCAGTGTCAGCGTCGTAT DNA 2: ATACGACGCTGACACTGGTGCCTGGCAGTT | – | – | Kd (MutS [4]): 23.1 µM; Kd (MutS [9]): 30.5 µM
30-CT (dsDNA) DNA 1: AACTGCCACGCACCAGTGTCAGCGTCGTAT DNA 2: ATACGACGCTGACACTGGTGCTTGGCAGTT | 0.324 µM | 0.331 µM | –
30-GG (dsDNA) DNA 1: AACTGCCAGGCACCAGTGTCAGCGTCGTAT DNA 2: ATACGACGCTGACACTGGTGCGTGGCAGTT | 0.168 µM | 0.137 µM | –
30-CC (dsDNA) DNA 1: AACTGCCACGCACCAGTGTCAGCGTCGTAT DNA 2: ATACGACGCTGACACTGGTGCCTGGCAGTT | 0.3 µM | 0.41 µM | –
30-TT (dsDNA) DNA 1: AACTGCCATGCACCAGTGTCAGCGTCGTAT DNA 2: ATACGACGCTGACACTGGTGCTTGGCAGTT | 0.291 µM | 0.321 µM | –
